According to doi:10.1101/2020.07.06.189761:

Experiments:
UM-Pif1ΔN (unmodified) = target: T1, UM-Pif1ΔN (unmodified) (Saccharomyces cerevisiae, UniProt P07271 234-859, del1-233); test: BLI
T1 sequence: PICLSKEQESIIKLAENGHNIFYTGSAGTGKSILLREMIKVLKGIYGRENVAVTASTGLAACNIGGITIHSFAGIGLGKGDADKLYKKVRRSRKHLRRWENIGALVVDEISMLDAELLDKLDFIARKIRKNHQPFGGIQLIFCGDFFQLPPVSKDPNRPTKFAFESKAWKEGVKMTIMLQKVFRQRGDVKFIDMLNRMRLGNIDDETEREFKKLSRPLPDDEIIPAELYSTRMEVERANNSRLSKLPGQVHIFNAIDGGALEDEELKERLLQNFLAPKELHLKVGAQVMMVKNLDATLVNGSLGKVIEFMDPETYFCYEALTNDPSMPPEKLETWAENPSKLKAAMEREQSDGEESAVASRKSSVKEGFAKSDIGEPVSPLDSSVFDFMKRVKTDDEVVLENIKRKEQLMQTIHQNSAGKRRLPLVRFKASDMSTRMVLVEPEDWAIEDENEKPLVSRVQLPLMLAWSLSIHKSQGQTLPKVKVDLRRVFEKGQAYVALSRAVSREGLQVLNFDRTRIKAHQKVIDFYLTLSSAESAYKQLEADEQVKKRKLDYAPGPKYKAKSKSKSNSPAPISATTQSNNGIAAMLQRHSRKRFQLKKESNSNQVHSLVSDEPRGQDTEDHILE

[1] = target: T2, UM-Pif1 (unmodified Pif1) (Saccharomyces cerevisiae, UniProt P07271 1-859); test: BLI
T2 sequence: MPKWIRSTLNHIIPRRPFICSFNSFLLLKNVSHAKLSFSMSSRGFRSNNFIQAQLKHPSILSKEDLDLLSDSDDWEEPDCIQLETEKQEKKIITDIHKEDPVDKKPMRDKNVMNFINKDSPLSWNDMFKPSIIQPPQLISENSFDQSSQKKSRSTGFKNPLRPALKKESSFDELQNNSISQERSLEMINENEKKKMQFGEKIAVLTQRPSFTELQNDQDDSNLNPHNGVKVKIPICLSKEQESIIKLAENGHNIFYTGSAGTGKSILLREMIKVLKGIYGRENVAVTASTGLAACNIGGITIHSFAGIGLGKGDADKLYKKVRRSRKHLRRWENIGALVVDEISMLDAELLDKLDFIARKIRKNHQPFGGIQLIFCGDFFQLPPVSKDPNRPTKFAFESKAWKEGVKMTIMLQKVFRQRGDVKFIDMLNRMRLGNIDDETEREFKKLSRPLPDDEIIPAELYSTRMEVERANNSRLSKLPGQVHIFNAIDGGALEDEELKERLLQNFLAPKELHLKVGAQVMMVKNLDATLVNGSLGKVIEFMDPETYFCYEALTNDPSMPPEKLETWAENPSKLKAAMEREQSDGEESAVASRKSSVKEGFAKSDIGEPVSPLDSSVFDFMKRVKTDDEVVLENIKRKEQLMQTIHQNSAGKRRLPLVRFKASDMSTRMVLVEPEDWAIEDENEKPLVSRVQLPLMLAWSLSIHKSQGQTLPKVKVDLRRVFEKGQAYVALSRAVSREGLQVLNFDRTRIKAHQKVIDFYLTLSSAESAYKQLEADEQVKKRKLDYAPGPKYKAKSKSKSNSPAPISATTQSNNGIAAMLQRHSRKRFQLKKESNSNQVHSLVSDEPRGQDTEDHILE

## TTTTTTTTTTTTTTTTTTTTTTTTTGTGTCACTCACATAGCGTTC (ssDNA) [T1 45-nt ssDNA]
UM-Pif1ΔN (unmodified)
  Kd: 14.1 ± 1.5 nM
[1]
  Kd: 19.1 ± 5.1 nM
